# What was measured:
# [1] = target: gliadin 33mer …; test: cell-based or functional assay
# [2] = tested on: gliadin 33mer LQLQPFPQPQLPYPQPQLPYPQPQLPYPQPQPF
# [3] = target: Ala-proNPY
# [4] = target: Gly-Ser-proNPY
# [5] = target: T1, gliadin 14mer PQPQLPYPQPQLPY
# T1 chain: PQPQLPYPQPQLPY
# [6] = target: T2, gliadin 33mer LQLQPFPQPQLPYPQPQLPYPQPQLPYPQPQPF
# T2 chain: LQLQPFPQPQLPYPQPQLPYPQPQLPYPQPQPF
molecule,measurement,setting,value
Pronase,"digestion of the peptide over 20 h, E/S=1/25",[1],< 40%
Chymotrypsin,digestion of the peptide,[2],Chymotrypsin alone or supplemented with ruLAP or DPPIV is not able to breakdown the peptide
recombinant ruLAP2 produced in P. pastoris (protein) RLVGQEPFGWPFKPMVTQDDLQNKIKLKDIMAGVEKLQSFSDAHPEKNRVFGGNGHKDTVEWIYNEIKATGYYDVKKQEQVHLWSHAEAALNANGKDLKASAMSYSPPASKIMAELVVAKNNGCNATDYPANTQGKIVLVERGVCSFGEKSAQAGDAKAAGAIVYNNVPGSLAGTLGGLDKRHVPTAGLSQEDGKNLATLVASGKIDVTMNVISLFENRTTWNVIAETKGGDHNNVIMLGAHSDSVDAGPGINDNGSGSIGIMTVAKALTNFKLNNAVRFAWWTAEEFGLLGSTFYVNSLDDRELHKVKLYLNFDMIGSPNFANQIYDGDGSAYNMTGPAGSAEIEYLFEKFFDDQGIPHQPTAFTGRSDYSAFIKRNVPAGGLFTGAEVVKTPEQVKLFGGEAGVAYDKNYHRKGDTVANINKGAIFLNTRAIAYAIAEYARSLKGFPTRPKTGKRDVNPQYSKMPGGGCGHHTVFM,removal of the N-terminal residue; mass loss by ESI-MS,[3],the N-terminal alanine was almost totally removed (molecular mass loss of 71 amu) from proNPY
same,removal of N-terminal residues; mass loss by ESI-MS,[4],cleavage of the two N-terminal residues Gly-Ser with a theoretical loss of 144.1 amu (found 144.2)
same,"digestion of the peptide, 37 C, 4 h, RP-HPLC and ESI-MS",[5],the 14mer is not digested with ruLAP2 within 4 h
same,"degradation of the peptide within 4 h, RP-HPLC",[6],partial degradation (less than 50%) of the peptide within 4 h
microsomal leucine aminopeptidase from porcine kidney (Sigma) (protein) KPWNRYRLPTTLLPDSYNVTLRPYLTPNADGLYIFKGKSIVRLLCQEPTDVIIIHSKKLNYTTQGHMVVLRGVGDSQVPEIDRTELVELTEYLVVHLKGSLQPGHMYEMESEFQGELADDLAGFYRSEYMEGNVKKVLATTQMQSTDARKSFPCFDEPAMKATFNITLIHPNNLTALSNMPPKGSSTPLAEDPNWSVTEFETTPVMSTYLLAYIVSEFQSVNETAQNGVLIRIWARPNAIAEGHGMYALNVTGPILNFFANHYNTSYPLPKSDQIALPDFNAGAMENWGLVTYRENALLFDPQSSSISNKERVVTVIAHELAHQWFGNLVTLAWWNDLWLNEGFASYVEYLGADHAEPTWNLKDLIVPGDVYRVMAVDALASSHPLTTPAEEVNTPAQISEMFDSISYSKGASVIRMLSNFLTEDLFKEGLASYLHAFAYQNTTYLDLWEHLQKAVDAQTSIRLPDTVRAIMDRWTLQMGFPVITVDTKTGNISQKHFLLDSESNVTRSSAFDYLWIVPISSIKNGVMQDHYWLRDVSQAQNDLFKTASDDWVLLNVNVTGYFQVNYDEDNWRMIQHQLQTNLSVIPVINRAQVIYDSFNLATAHMVPVTLALDNTLFLNGEKEYMPWQAALSSLSYFSLMFDRSEVYGPMKKYLRKQVEPLFQHFETLTKNWTERPENLMDQYSEINAISTACSNGLPQCENLAKTLFDQWMSDPENNPIHPNLRSTIYCNAIAQGGQDQWDFAWGQLQQAQLVNEADKLRSALACSNEVWLLNRYLGYTLNPDLIRKQDATSTINSIASNVIGQPLAWDFVQSNWKKLFQDYGGGSFSFSNLIQGVTRRFSSEFELQQLEQFKKNNMDVGFGSGTRALEQALEKTKANIKWVKENKEVVLNWFIEHS,"digestion of the peptide, RP-HPLC and ESI-MS",[6],results only in a partial deletion of N-terminal Leu and C-terminal Phe (due to a carboxypeptidasic contaminant)
cytosolic leucine aminopeptidase from porcine kidney (Sigma) (protein) TKGLVLGIYSKEKEDDAPQFTSAGENFDKLVSGKLREILNISGPPLKAGKTRTFYGLHEDFSSVVVVGLGKKGAGVDDQENWHEGKENIRAAVAAGCRQIQDLEIPSVEVDPCGDAQAAAEGAVLGLYEYDELKQKKKVVVSAKLHGSGDQEAWQRGVLFASGQNLARHLMETPANEMTPTRFAEVIEKNLKSASSKTDVHIRPKSWIEEQEMGSFLSVAKGSEEPPVFLEIHYKGSPDASDPPLVFVGKGITFDSGGISIKASANMDLMRADMGGAATICSTIVSAAKLDLPINLVGLAPLCENMPSGKANKPGDVVRAKNGKTIQVDNTDAEGRLILADALCYAHTFNPKVIINAATLTGAMDIALGSGATGVFTNSSWLWNKLFEASIETGDRVWRMPLFEHYTKQIVDCQLADVNNIGKYRSAGACTAAAFLKEFVTHPKWAHLDIAGVMTNKDEVPYLRKGMAGRPTRTLIEFLLRFSQDSA,"digestion of the peptide, RP-HPLC",[6],totally inactive towards the 33mer

# Reference: patent publication US20050158298A1
